Results from publication PMC6598307, “Directed evolution of a genetically encoded immobilized lipase for the efficient production of biodiesel from waste cooking oil” (Biotechnology for Biofuels, 2019).

Substrate: CCCCCCCCCCCCCCCC(=O)Oc1ccc([N+](=O)[O-])cc1
Assay: purified protein
Format: biochemical, Proteus mirabilis
Conditions: soluble free enzyme, 0.1 M NaH2PO4 pH 7.0, 25 °C, 1 nM enzyme, pNPP 0-2.25 mM, pNPP stock in MeCN:Triton X-100 1:1

B1: Proteus mirabilis lipase (PML), soluble (Proteus mirabilis HI4320) (protein)
chain: MSTKYPIVLVHGLAGFNEIVGFPYFYGIADALRQDGHQVFTASLSAFNSNEVRGKQLWQFVQTLLQETQAKKVNFIGHSQGPLACRYVAANYPDSVASVTSINGVNHGSEIADLYRRIMRKDSIPEYIVEKVLNAFGTIISTFSGHRGDPQDAIAALESLTTEQVTEFNNKYPQALPKTPGGEGDEIVNGVHYYCFGSYIQGLIAGEKGNLLDPTHAAMRVLNTFFTEKQNDGLVGRSSMRLGKLIKDDYAQDHIDMVNQVAGLVGYNEDIVAIYTQHAKYLASKQL
notes: full-length PML gene in pET28b (NdeI/XhoI), N-terminal His-tag; no signal peptide needed; E. coli BL21(DE3)
  Km: 1770 ± 330 µM
  kcat: 112 ± 12 s⁻¹
  kcat/Km: 63200 ± 210 M⁻¹ s⁻¹
